Measurements as given in paper PMC11305080 (2024).

B1: HIT01-K21Q-R218E (cleavage-resistant variant of HIT01) (designed binder)
chain 1: DYSEDQEVKAPQLDHPDPGTERVAELLRCTKSVWRIPEQYLVVLREGTRDSHVQRTVSTLRAQAARRGHAIHIMHTYSGVFHGFLIKMSSEVLPMALKLPHVAYIEEDSSIFAQ
chain 2: SIPWNLQRIIQTKHETGKYTPPNDGAQVTVFLLDTSVQTDHREIEGKVMVTDFNSMPKEDGTRFHESASKCESHGTHIAGVLSGRDAGVARGVSVNTVRVLNCQGRGTVSGALAGLEYIRASLQAQPVSPVIILLPFVGGFSRTLNTACREMVHSGAVLIAAAGNYQDDACMYSPASEPEVITVGASNAADRPLSSGTTGTNLGRCVDVFAPGEDIISASGDCSTCFVSMSGTSQSAAHAAGIAAVLLNAYPSASPAEVLQLLRYHAVQRVINPDSLPPEHYLTTPDMVAALPTSAATGEKLLCRSVWSKRSGVGSFDTAVARCRHGEEMFSCSSYSPNGVHAGERIEIRDGQKVCEAHHGIGGQGVYAVARCCTGSRVKCHASASLHVGIDAECPSQEFQLTGCSSHYIRSQDVAQPSWPLHSNRKACPAGEGGTSHAFCCHAPNLECHLIEHHQSEFTKQVEVSCEDSWTLTGCNAVSHGSVTHAAYTRGNTCVIQMFGGDKGAAAIAICCRYRPLDQQSNNNHEQNT
B2: AMG145 (evolocumab) IgG (antibody, V domains shown)
VH: EVQLVQSGAEVKKPGASVKVSCKASGYTLTSYGISWVRQAPGQGLEWMGWVSFYNGNTNYAQKLQGRGTMTTDPSTSTAYMELRSLRSDDTAVYYCARGYGMDVWGQGTTVTVSS
VL: ESALTQPASVSGSPGQSITISCTGTSSDVGGYNSVSWYQQHPGKAPKLMIYEVSNRPSGVSNRFSGSKSGNTASLTISGLQAEDEADYYCNSYTSTSMVFGGGTKLTVL
B3: 1D05 Fab (Fab, V domains shown)
VH: QVQLVQSGAEVKKPGSSVKVSCKASGGTFNSHAISWVRQAPGQGLEWMGGINPILGIANYAQKFQGRVTITADESTSTAYMELSSLRSEDTAVYYCARHYEIQIGRYGMNVYYLMYRFASWGQGTLVTVSS
VL: DIQMTQSPSSLSASVGDRVTITCRASQGIRSALNWYQQKPGKAPKLLIYNGSTLQSGVPSRFSGSGSGTDFTLTISSLQPEDFAVYYCQQFDGDPTFGQGTKVEIK

Key:
Assay in all cases: BLI
J16 = target: J16
[1] = target: human proprotein convertase subtilisin/kexin type 9 (PCSK9) (human, UniProt Q8NBP7 153-692)
[2] = target: B1

Row | Binder | Kd (J16) [pM] | Kd [1] [pM] | Kd [2] [pM]
1 | B1 | 620 | – | –
2 | B2 | – | 170 | 190
3 | B3 | – | – | 1830
